Data published in the supplement of paper PMC12042874.
± gives the uncertainty stated by the source.

Experiment: amyloid nucleation score (Sup35N fusion, yeast selection) (log enrichment); library NNK3; higher = more nucleation; inactive = no reads after selection
Outline: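 DiMSum was used to calculate nucleation scores as log enrichment of output over input reads, centred on the mode score of non-aggregating sequences. Sequences with fewer than 100 input reads were not scored. Input and output came from Illumina sequencing of plasmid inserts in psi-negative yeast expressing peptides of 20 random codons fused to Sup35N, induced 24 hours with 100 μM copper sulfate and then grown 7 days at 30°C on medium lacking adenine and uracil.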

| Substance | amyloid nucleation score |
| --- | --- |
| ICLVEISDGAFRKR | inactive |
| MLCKYTCLICYGYRTKRSSE | 0.684 ± 0.17 |
| DYALC | inactive |
| LSFQAMLVR | inactive |
| CSGLSDLSVTLNCYVNCIFL | 2.48 ± 0.077 |
| FWCIYS | inactive |
| QRKTYRTVEHGMHSSSNL | inactive |
| TPKFLSMLIRTHSSPVRTHL | inactive |
| LFRLACVTNMRSNLLSYRRC | 0.131 ± 0.64 |
| PTFNRAMTWYFKFLFHYAHD | inactive |
| RPSSLIYFSSPNTRHGSPTL | inactive |
| HSIIVEWKC | inactive |
| FFFLWGAP | inactive |
| VRAGTIYRGVYHFCLFCMGE | 0.828 ± 0.15 |
| SWQMWYWLLVKSMPCMLHHF | inactive |
| VCIRTFLSLVSDCNACWSQL | inactive |
| VCLWTVDLRIVTEGLGSHRG | inactive |
| TEDGYNNEMSRQKVMVLINT | inactive |
| IRSNGTFTPWEPLSVIWCTK | inactive |
| PRRSNSFRLPLIHISQYSLK | 0.939 ± 0.2 |
| RILMCMLYAAGSMARYPIWG | inactive |
| RGGGQDDYTRFLGSLNDVPV | inactive |
| GESNLCDAG | inactive |

| Substance | amyloid nucleation score |
| --- | --- |
| ARSDHYYAVIGDVRMNILPI | inactive |
| HGGIHCYFFYSYGDLEKEIL | 2.44 ± 0.078 |
| HIRRCEVTNTF | inactive |
| LYFFYMPQTWVVSRCCGYNP | 3.06 ± 0.079 |
| WNVWVLPIFIAFGLEPPRLE | 2.62 ± 0.059 |
| NMVDCGISLV | inactive |
| KCTGYAGCCWWT | inactive |
| RSLNPWLYAVSLHYEQFVGV | inactive |
| HANRSCCLPCIHLPFSRVLS | inactive |
| IDHKCCNNTVS | inactive |
| RESDMRSAWGSDVVCLLGDS | 1.11 ± 0.15 |
| VLFFSAYWMFQKVGVLVPSK | inactive |
| YILRFSWFIYLIRQWSNSGP | inactive |
| YIYTFYSVSY | 0.201 ± 0.17 |
| VVLYRIGVLSN | inactive |
| VTFSSISHIRRYVSNHMCLG | inactive |
| YWMMLRT | inactive |
| LCFRCASLTESIGL | inactive |
| TPFTFGCHRLLQHKYCNSDV | inactive |
| MRLMEQYFICCVM | 1.06 ± 0.17 |
| ILAFLERYTLMWFRELYNAS | inactive |
| NWSYRDGREPHYI | 1.15 ± 0.12 |
| RGICFGYLGFM | 0.145 ± 0.3 |

| Substance | amyloid nucleation score |
| --- | --- |
| FVHRLPGWGSKLKTIRTCSN | inactive |
| FCSRYWLYLCRALLNRVVMR | inactive |
| FKDFIIICLAKLFGIFYDTD | inactive |
| LKEQSVQMAWP | inactive |
| VKHQVDCLIVVI | inactive |
| LSYSIRLLIFVRR | -0.293 ± 0.82 |
| SAGYGLPPPVEYFNWPFSC | -0.394 ± 1.9 |
| DSDDNVRKNFAS | inactive |
| IWISLGAMIMFMVN | inactive |
| LHTPIMRNYR | inactive |
| FYPTNGSGSRVLMHGNSMLC | inactive |
| DLAWPRMPTIQARVEQYCLI | inactive |
| VHLSWFSIIVRVDEGDWARR | -0.839 ± 1.5 |
| CVMNRN | inactive |
| LIARCKRAIAGGY | inactive |
| IGNCFMTMGRLVSRQDSVPM | -0.427 ± 1 |
| FCGPFSYGRLTYGFWFRKRP | 1.75 ± 0.11 |
| AHRQMGNFR | -0.701 ± 1.2 |
| CVWLVVTSDFLFRQLL | 1.73 ± 0.11 |
| TVSKCSERRVCTPGDSCVAC | inactive |
| KISETGRCNSLCW | inactive |
| VVILGLHRVVDRRNAKVAKL | inactive |
| CGTFNCYNGAL | 0.699 ± 0.19 |

| Substance | amyloid nucleation score |
| --- | --- |
| CYCPHPNGESFCFSVSWDTN | inactive |
| VARISYLEIHNGETNFTYWF | 2.47 ± 0.062 |
| CLFCSALEL | 1.99 ± 0.072 |
| TLFQDSLLYVSWRSES | 0.118 ± 0.34 |
| YLSPEAQKLDQIDSMSADMV | inactive |
| LEDRACVFNKLIVLQ | inactive |
| DRIAHF | inactive |
| LSQIEGWKCIGWVHYMVDSI | inactive |
| SIDDGLSYLMGKVKIHKSGK | inactive |
| IYSVTMTRHVFFNGFQVQLV | inactive |
| AYLGLLNSAKFFKYLRSYAW | inactive |
| IVCNIN | -0.036 ± 0.55 |
| GNSAYK | inactive |
| LNTRVGSFTNRLWSRMKEGG | inactive |
| YDKVFLPLGWHWPERPMGQT | inactive |
| CNISERENALETHTMNKFVV | inactive |
| RFCRRVHMRLDAVGTCVRWW | inactive |
| SECRTRLWLRESYNFSPDVK | inactive |
| SELQYISLIYCDNRVCLHAL | inactive |
| VISISRFDGWQRAHVKVRVS | inactive |
| VLFMMMERHSRSRSRGSLQ | 0.858 ± 0.23 |
| CRDKANVLAAVRRR | inactive |
| TYEGITVVTFVSYSYAIREP | 0.703 ± 0.096 |

| Substance | amyloid nucleation score |
| --- | --- |
| YETVMFSS | inactive |
| VWDRRK | inactive |
| SLVTYNVVRSKARNRWIELV | inactive |
| LRSWPVLHSAISTND | inactive |
| KLQYYVALSAT | inactive |
| LLDVYLD | inactive |
| NMWWNGSETNCESRVFEIET | inactive |
| EVEIRWPCLKVVFLFLVH | inactive |
| KEADDCVREAKFGAEFVTLR | inactive |
| IRFSGIVAVMISQGGSRREC | 2.5 ± 0.08 |
| YVNFWKLVIREINFKKNGEP | inactive |
| REVMWKICFRKINYVGYSGK | inactive |
| RDTYMGREVCFNNTPERF | 0.21 ± 0.77 |
| PELRRLTMESYIRNFWSVLS | inactive |
| ISLKSLFVFHNLSVDIWVQR | inactive |
| LCPRFGEEWCC | inactive |
| HKFDNKIRPTWYVVLPIFNA | inactive |
| VLVVCSLSAC | inactive |
| ACCQTDRFRFEVALVGFVVG | inactive |
| YKYLLFAFLETLGQWYLYVE | inactive |
| VKMTGDVVTLHLRDLINCWA | inactive |
| VHLYADPDVMQYNRWDVVGY | inactive |
| YSLAELMCMKEHLPMRNGCF | 0.774 ± 0.14 |

| Substance | amyloid nucleation score |
| --- | --- |
| YAFISWNS | inactive |
| RMRSGSA | inactive |
| KFILFRVSVKGIRRFQVGR | 1.47 ± 0.14 |
| NIDFLLSYRTMSKFYPNIRM | inactive |
| YGMGSGTTMVCPKVAWG | inactive |
| VLNFIMAWYNFRFVWGSMGV | inactive |
| SRYMNRR | inactive |
| DFWKL | inactive |
| GGARMRFDQFMRHRATLASV | inactive |
| SNYCCRVSFVIKLLRMVYNF | 2.42 ± 0.08 |
| TRVSWTFGINTSSGPSALHL | 0.995 ± 0.13 |
| YYYLKVHNLVSYVNAFVR | inactive |
| NYILSHWELV | inactive |
| NCIIR | inactive |
| SLRSYSGILSFYGYSGKIST | inactive |
| DISQGLRRNSSGYLVQRGYA | inactive |
| CALHRAGRTLVCFIYIFSGM | inactive |
| RWWVNSCMEIM | inactive |
| IAQIFLACRTVT | inactive |
| FVRLHSFA | inactive |
| CENIVGMPDRRISSVAGPDG | 0.486 ± 0.33 |
| IPVSHVAMNGECGWVSDIKH | inactive |
| GSKFIFFLMFYGVWLRSPSK | inactive |

| Substance | amyloid nucleation score |
| --- | --- |
| MIVGYACFAFGAWFFGFYCM | inactive |
| IDDEIANSSFQVWLKGGFLV | inactive |
| VPFDGLFWYCRCR | inactive |
| STVRVWHCLFFFLIGVHNCC | inactive |
| SDQSCGDIMMELFWQM | inactive |
| GFSGPSLGQIAG | inactive |
| SFPLSYSSYIRLRVFFVE | inactive |
| IYLLGMYIKACSG | inactive |
| FSLHQSNTLRPWDLIPATW | inactive |
| SYAQGH | 0.901 ± 0.18 |
| LENFRCPVEGAVQERFGANL | inactive |
| SFSRPCWLYWAGFLSVVYRC | inactive |
| TPMWMGT | inactive |
| MLGVMCLYQVVFIDHSYSYR | inactive |
| FFQDQFVDWLDYTVLRI | inactive |
| STPSTQDFVKQSLEARVLSS | inactive |
| LRVKNDVHGLLELGSVDVSI | inactive |
| GICNQNIPQRGSMWLVSKTF | inactive |
| RRDCCGE | 0.17 ± 0.75 |
| QDKMSMYTYMMR | inactive |
| FGILSDIVCSTVVKNCDL | inactive |
| VLADCWRSGIHWIGHTYLIN | inactive |
